{"source": "the nanobody polyreactivity screen of Harvey et al. (2022)", "data": [{"assay": "yeast display, Sf9 membrane polyspecificity reagent, FACS + sequencing; frameworks hold sequencing errors", "how_it_was_run": "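Using colony PCR, genes from sorted yeast display clones were amplified, then sequenced on MiSeq at 2 × 250 and filtered by CDR length. The clones had been stained with 10% biotinylated, detergent-solubilized Sf9 membrane reagent for 1 hour at 4 °C and sorted by FACS into low and high (top ~1%) gates on anti-HA and streptavidin fluorescence. Polyreactivity labels come from the gate of origin.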", "values": [{"sequence": "QVQLVESGGGLVQAGGSLRLSCAASGNIFLSYAMGWYRQAPGKERELVAGISASGGRTYYADSVKGRFTISRDNAKNTVYLQMNSLKPEDTAVYYCATRNTRFHLDYWGQGTQVNVSS", "polyreactivity (PSR sort gate)": "high polyreactivity"}, {"sequence": "QVQLVESGGGLVQAGGSLRLSCAASGNIFLYYAMGWYRQAPGNERELVADIDSSGASTYYADSVKGRFTISRDNAKNTVYFQMNSLKPEDTAVYYCASEFHWWYAGYDYGYWGQGTQVTVSS", "polyreactivity (PSR sort gate)": "low polyreactivity"}, {"sequence": "QVQLVESGGGLVQAGGSLRLSCAASGNIFNGNAMGWYRQAPGKERELVAAIRGNGGITYYADSVKGRFTISRDNAKNTVYLQMNSLKPEDTAVYYCAVRSAWVYGIGRYYWGQGTQVTVSS", "polyreactivity (PSR sort gate)": "high polyreactivity"}, {"sequence": "QVQLVESGGGLVQAGGSLRLSCAASGNIFPYNAMAWYRQAPGKERELVATISSGGSTYYADSVKGRFTISRDNAKNTVYLQMNSLKPEDTAVYYCAARGRYPYRYGYWGQGTQVTVSS", "polyreactivity (PSR sort gate)": "high polyreactivity"}, {"sequence": "QVQLVESGGGLVQAGGSLRLSCAASGNIFRANPMGWYRQAPGKERELVASITVSGGSTNYADSVKGRFTISRDNAKNTVYLQMNSLKPEDTAVYYCAKTLTRSVKFSTVLLGPTPDYYWGQGTQVTVSS", "polyreactivity (PSR sort gate)": "high polyreactivity"}, {"sequence": "QVQLVESGGGLVQAGGSLRLSCAASGNIFRGYTMGWYRQAPGKERELVATITWNGVSTFYADSVKGRFTISRDNAKNTVYLQMNSLKPEDTAVYYCAAYYPSHDYSGFWSDTYEYWGQVTQVTVSS", "polyreactivity (PSR sort gate)": "low polyreactivity"}, {"sequence": "QVQLVESGGGLVQAGGSLRLSCAASGNIFRGYTMGWYRQAPGKERELVAVISFGDGGTYYADSVKGRFTISRDNAKNTVYLQMNSLKPEDTAVYYCATDYQSTSVWGGHFVINPYDYWGQGTQVTVSS", "polyreactivity (PSR sort gate)": "low polyreactivity"}, {"sequence": "QVQLVESGGGLVQAGGSLRLSCAASGNIFRNNAMGWYRQAPGKERELVAAISRGGSTYYADSVKGRFTISRDNAKNTVYLQMNSLKPEDTAVYYCNKYSSRAYNYWGQGTQVTVSS", "polyreactivity (PSR sort gate)": "high polyreactivity"}, {"sequence": "QVQLVESGGGLVQAGGSLRLSCAASGNIFSDNAMGWYRQAPGKESELVAAITSGGSTNYADSVKGRFTISRDNAKNTVYLQMNSLKPEDTAVYYCAADISYRHFLFDYWGQGTQVTVSS", "polyreactivity (PSR sort gate)": "low polyreactivity"}, {"sequence": "QVQLVESGGGLVQAGGSLRLSCAASGNIFSDYTMGWYRQAPGKERELVAAISGDGGTTYYADSVKGRFTISRDNAKNTVYLQMNSLKPEDTAVYYCAADGYYDAYDQFFIVYYEYDYWGQGTQVTVSS", "polyreactivity (PSR sort gate)": "low polyreactivity"}, {"sequence": "QVQLVESGGGLVQAGGSLRLSCAASGNIFSSNAMGWYRQAPGKERELVAAISASGGNTYYSDSVKGRFTISRDNAKNTVYLQMNSLKPEDTAFYYCNAYRGGYLRRGYYYWGQGTQVTVSS", "polyreactivity (PSR sort gate)": "high polyreactivity"}, {"sequence": "QVQLVESGGGLVQAGGSLRLSCAASGNIFSSNDMGWYRQAPGKQRELVAANTRSGGSTYYADSVKGRFTISRDNAKNTLYIQMNSHTPEDTAVYDGAGRPYPRNSWGYDDWGQGTQVTVSS", "polyreactivity (PSR sort gate)": "high polyreactivity"}, {"sequence": "QVQLVESGGGLVQAGGSLRLSCAASGNIFSSYVMGWYRHAPGKERELVAAISSRGGSTYYADSVKGRFTISRDNAKNTVYLQMNSLKPEDTAVYYCAARYLSWYDWGQGTQVTVSS", "polyreactivity (PSR sort gate)": "high polyreactivity"}, {"sequence": "QVQLVESGGGLVQAGGSLRLSCAASGNIFSWYAMGWYRQAPGKERELVAAITSGGITYYADSVKGRFTISRDNAKNTVYLQMNSLKPEDTAVYYCNIDVGFTRPLYYWGQGTQVTVSS", "polyreactivity (PSR sort gate)": "low polyreactivity"}, {"sequence": "QVQLVESGGGLVQAGGSLRLSCAASGNIFTGYMGWYRQAPGKERELVAAISRSGGRTHYADSVKGRFTISRDNAKNTVYLQMNSLKPEDTAVYYCNADVRRYTAFTKDAYAFNYWGQGTQVTVSS", "polyreactivity (PSR sort gate)": "high polyreactivity"}, {"sequence": "QVQLVESGGGLVQAGGSLRLSCAASGNIFTLNTSGCYRQAPGKERELVARITSGDRKYYADSVKGRFTISRDNAKNTVYLQMNSLKPEDTAVYYCAARRPAYYSFWVTGYNYWGQGTQVTVSS", "polyreactivity (PSR sort gate)": "high polyreactivity"}, {"sequence": "QVQLVESGGGLVQAGGSLRLSCAASGNIFTNNAMGWYRQAPGKEREFVAAITRSGGSTSYADSVKGRFTISRDNAKNTVYLQMISLNPEDTAVYYCAATGYRYRRIYGFDYWGQGTQVTVSS", "polyreactivity (PSR sort gate)": "high polyreactivity"}, {"sequence": "QVQLVESGGGLVQAGGSLRLSCAASGNIFTRNAMGWYRQAPGKVRELVASITRGGSTYADSVKGLFTISRDNAKNTVYLQMNSLKPEDTAVYYCAASCYYSSHMDYWGQGTQVTVSS", "polyreactivity (PSR sort gate)": "high polyreactivity"}, {"sequence": "QVQLVESGGGLVQAGGSLRLSCAASGNIFVFYVMGWYRQAPGKERELVASISSTGNTYYADSVKGRFTISRENAMNTVYLQLNRLKPEDTAVYYCAADSHQNVSGWLRWPRMDYWGQGTQVTVSA", "polyreactivity (PSR sort gate)": "low polyreactivity"}, {"sequence": "QVQLVESGGGLVQAGGSLRLSCAASGNIFVLNPMGWYRQATCKETELVAAISRSGVRTYYADSVKGRFTISRDNAKNTVYLQMNSLKPEDTAVYYCAAVYKRLQPYGYWGQGTQETVSS", "polyreactivity (PSR sort gate)": "high polyreactivity"}, {"sequence": "QVQLVESGGGLVQAGGSLRLSCAASGNIFVWNDMGWYRQAPGKERELVAAISLSGSSTYYADSVKGRFTISRDNAKNTVYLQMNSLKPEDTAVYYCATTRRVPGEYWGQGTQVTVSS", "polyreactivity (PSR sort gate)": "high polyreactivity"}, {"sequence": "QVQLVESGGGLVQAGGSLRLSCAASGNIFWGNAMGWYRQAPGKERELVAAITSIDSSTYYADSVKGRFTISRDNAKNTVYLQMNSLKPEDTAVYYCAADGDWYGYIWQSDDGYDSWGQGTQVTVSS", "polyreactivity (PSR sort gate)": "low polyreactivity"}, {"sequence": "QVQLVESGGGLVQAGGSLRLSCAASGNIFWRNAMGWYRQAPGKERELVAAISRRAVSTYYADSVKGRFTISRDNAKNTVYLQMNSLKPEDTAVYYCAARLGGENDYWGQGTQVTVSS", "polyreactivity (PSR sort gate)": "high polyreactivity"}, {"sequence": "QVQLVESGGGLVQAGGSLRLSCAASGNIFYANAMGWYRQAPGKERELVAGITVRGGRTYYADSVKGRFTISRDNAKNTVYLQMNSLKPEDNAVYYCAVRSRGSRYDYWGQGTQVNVSS", "polyreactivity (PSR sort gate)": "high polyreactivity"}, {"sequence": "QVQLVESGGGLVQAGGSLRLSCAASGNIFYAYDMGWYRQAPGKERELVAAITNGDSTDYADSVKGRFTISRDNAKNTVYLQMNSLKPEDTAVYYCNADYLPEPWALGGSQYDYWGQGTQVTVSS", "polyreactivity (PSR sort gate)": "low polyreactivity"}, {"sequence": "QVQLVESGGGLVQAGGSLRLSCAASGNIFYGYAMGWYRQAPGKERELVAAITSDGITYYADSVKGRFTISRDNAKNTVYLQMNSLKPEDTAVYYCNVTQLYEYYKYYYWGQGTQVTVSS", "polyreactivity (PSR sort gate)": "low polyreactivity"}, {"sequence": "QVQLVESGGGLVQAGGSLRLSCAASGNIFYRKARGWYRQAPGKERELVAAITSGGGSTYYADSVKGRFTISRDNAKNTVYLQMNSLKPVDTAVYYCNAYAWNYFGIKVTYDYWGQGTQVTVSS", "polyreactivity (PSR sort gate)": "high polyreactivity"}, {"sequence": "QVQLVESGGGLVQAGGSLRLSCAASGNIFYVYVMGWYRQAPGKERELVASITSGASTYYADSVKGRFTISRDNAKNTVYFQMNSLKPEDTAVYYCAAEALGGAGDYSTLYIYDYWGQGTQVTVSS", "polyreactivity (PSR sort gate)": "low polyreactivity"}, {"sequence": "QVQLVESGGGLVQAGGSLRLSCAASGNIIDANAIGWYRPAPGKERQLVAAITSSGGSTYYADSVKGRFTISRDNAKNTVYLQMNSLKPEDTAVYYCAKSHAIYYWWDESWGQGTQVTVSS", "polyreactivity (PSR sort gate)": "low polyreactivity"}, {"sequence": "QVQLVESGGGLVQAGGSLRLSCAASGNIISIYAMGWYRQAPGKEREFVASNDWSVASTYYADSVKGRFTISRDNAKNTVYLQMNSLKPEDTAVYYCAAELFGLKYGYYLSYDYWGQGTQVTVSS", "polyreactivity (PSR sort gate)": "high polyreactivity"}, {"sequence": "QVQLVESGGGLVQAGGSLRLSCAASGNILFSYAMGWYRQAPRKERELVAAISSSGGSTYYADSVKGRFTISRDNAKNNVYLQMNSLKPEDTAVYYCARYSFYKYDYWGQGTQVTVSS", "polyreactivity (PSR sort gate)": "high polyreactivity"}, {"sequence": "QVQLVESGGGLVQAGGSLRLSCAASGNILSVYTLGWYRQAPGKERELVANITYSGDRTYADSVQVRFTISRDNAKTTVYLQMKILKPEDTAVYYCSKDGYPTGGPYWGGMDYWGQGTQVTVSS", "polyreactivity (PSR sort gate)": "low polyreactivity"}, {"sequence": "QVQLVESGGGLVQAGGSLRLSCAASGNNFSYNAMGWYRQAPGKERELVAAITTSSGRTYYADSVKGRFTISRDNAKNTVYLQMNSLKPEDTAVYFCNAVQRYQIGYWGQGTQVTVSS", "polyreactivity (PSR sort gate)": "high polyreactivity"}, {"sequence": "QVQLVESGGGLVQAGGSLRLSCAASGNNFYVNVMGSYRQAPGKEMEFVAAISTRGVSTSYADSVKGRFTISRDNAKYTVYLQMNSLKPEDTAVYYCAASFRRPQPKGTTYGYLGQGTQVTVSS", "polyreactivity (PSR sort gate)": "high polyreactivity"}, {"sequence": "QVQLVESGGGLVQAGGSLRLSCAASGNTFDYYAMGWYRQAPGKERELVAAIDSGTTTYYADSVKGRFTISRDNAKNTVYLQMNSLKPEDTAVYYCAAEYAYVPGWYEYWGQGTQVTVSS", "polyreactivity (PSR sort gate)": "high polyreactivity"}, {"sequence": "QVQLVESGGGLVQAGGSLRLSCAASGNTFDYYTMGWYRQAPGKERELVAAISWNGGSTYYADSVKGRFTISRDNAKTTVYLQMNSLKPEDSAVYYCAVLYRSEYDWGQGTQVTVSS", "polyreactivity (PSR sort gate)": "low polyreactivity"}, {"sequence": "QVQLVESGGGLVQAGGSLRLSCAASGNTFFPYTMGWYRQAPGKERELVAAITWSGVSTYYADSVKGRFTISRDNAKNTVYLQMNSLKPEDTAVYYCAARGPVYVSYPRQYGYWGQGTQVTVSS", "polyreactivity (PSR sort gate)": "high polyreactivity"}, {"sequence": "QVQLVESGGGLVQAGGSLRLSCAASGNTFGFYAMGWYRQAPGKERELVAGITSGDSTYYADSVKGRFTISRDNAKNTVYLQMNSLKPEDTAVYYCATAPYVTSRRYGPYEYWGQGTQGTVSS", "polyreactivity (PSR sort gate)": "low polyreactivity"}, {"sequence": "QVQLVESGGGLVQAGGSLRLSCAASGNTFGKYAMGWSRQAPGKERELLATITRRGGSTYYADSVKGRFTISRDNAKNTVYLQMNSLNPEDTAVYYCAAVVRYRQGVTRSIMDYWGQGTQVTVSS", "polyreactivity (PSR sort gate)": "high polyreactivity"}, {"sequence": "QVQLVESGGGLVQAGGSLRLSCAASGNTFGNYAMGWYRQAPGKERELVAAITTIGGSTYYADSVKGRFTISRDNAKNTVYLQMNRLKPEDTAVYYCAKVENRYPVGKYDYWGQGTQVTVSS", "polyreactivity (PSR sort gate)": "low polyreactivity"}, {"sequence": "QVQLVESGGGLVQAGGSLRLSCAASGNTFGYNAMGWYRQAPGKERELVAAISSSGTRTYYADSVKGRFTISRDNAKNTVYLQMNSLKPEDTAVYYCNARSTRYKFGYWGQGTQVTVSS", "polyreactivity (PSR sort gate)": "high polyreactivity"}, {"sequence": "QVQLVESGGGLVQAGGSLRLSCAASGNTFISYAMGWYRQAPGKERELVAAITWSGGSTYYADSVKGRFTISRDNAKNTVYLQMNSLKPEDTAVYYCAKFTHNYYYWGQGTQVTVSS", "polyreactivity (PSR sort gate)": "high polyreactivity"}, {"sequence": "QVQLVESGGGLVQAGGSLRLSCAASGNTFKTNAMGWYRQAPGKERELVAAISSSGSTYYADSVKGRFTISRDNAKNTVYLQMNSLKPEDTAVYYCAVTYRRFYYWGQGTQVTVSS", "polyreactivity (PSR sort gate)": "high polyreactivity"}]}]}
